The values below come from patent US20050233313.

The series deals with β-galactosidase substrate with a cleavage cassette (decapeptide corresponding to an HIV protease cleavage site) inserted into its open reading frame [β-galactosidase: P00722].
Chain of β-galactosidase substrate with a cleavage cassette (decapeptide corresponding to an HIV protease cleavage site) inserted into its open reading frame [β-galactosidase: P00722] (P00722 2-1024): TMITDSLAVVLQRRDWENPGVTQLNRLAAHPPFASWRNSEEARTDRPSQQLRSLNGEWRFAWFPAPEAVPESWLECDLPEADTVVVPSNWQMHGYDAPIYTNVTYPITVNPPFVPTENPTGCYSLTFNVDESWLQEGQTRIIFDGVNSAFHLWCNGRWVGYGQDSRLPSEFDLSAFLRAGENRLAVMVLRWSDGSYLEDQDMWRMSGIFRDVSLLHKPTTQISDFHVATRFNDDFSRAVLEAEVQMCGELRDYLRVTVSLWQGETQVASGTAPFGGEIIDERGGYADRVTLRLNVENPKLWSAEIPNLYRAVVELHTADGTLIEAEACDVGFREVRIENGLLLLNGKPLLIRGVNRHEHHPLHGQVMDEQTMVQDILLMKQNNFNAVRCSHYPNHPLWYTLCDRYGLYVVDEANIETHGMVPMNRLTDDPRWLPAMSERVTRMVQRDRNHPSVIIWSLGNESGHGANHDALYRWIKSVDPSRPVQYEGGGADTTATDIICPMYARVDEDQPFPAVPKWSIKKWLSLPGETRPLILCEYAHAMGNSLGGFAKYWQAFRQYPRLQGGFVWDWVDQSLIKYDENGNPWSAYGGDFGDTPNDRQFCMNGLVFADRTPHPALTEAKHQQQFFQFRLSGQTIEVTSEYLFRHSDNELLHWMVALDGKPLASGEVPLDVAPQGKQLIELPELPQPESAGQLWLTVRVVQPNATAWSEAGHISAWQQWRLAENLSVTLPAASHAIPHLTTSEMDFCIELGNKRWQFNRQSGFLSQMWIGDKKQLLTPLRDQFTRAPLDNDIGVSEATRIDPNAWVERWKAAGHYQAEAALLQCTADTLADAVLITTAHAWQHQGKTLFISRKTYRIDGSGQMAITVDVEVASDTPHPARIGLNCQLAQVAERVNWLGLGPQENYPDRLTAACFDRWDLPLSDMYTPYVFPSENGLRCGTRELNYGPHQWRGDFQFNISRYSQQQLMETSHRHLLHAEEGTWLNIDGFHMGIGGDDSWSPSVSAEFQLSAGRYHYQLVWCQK

Take “HIV-1 protease D25A (99 residues, HXB2) expressed from pMono”: the % Cleavage came to 0%.
The same measure for “HIV-1 protease F99A (99 residues, HXB2) expressed from pMono”: 0%; for “HIV-1 protease I3A (99 residues, HXB2) expressed from pMono”: 0%.
In the case of “HIV-1 protease L97A (99 residues, HXB2) expressed from pMono”, the % Cleavage worked out at 0%.
The same measure for “HIV-1 protease N98A (99 residues, HXB2) expressed from pMono”: 68%.
“HIV-1 protease P1A (99 residues, HXB2) expressed from pMono”: the % Cleavage is 92%.
For “HIV-1 protease Q2A (99 residues, HXB2) expressed from pMono”, the % Cleavage stood at 96%.
Turning to “HIV-1 protease T4A (99 residues, HXB2) expressed from pMono”, the % Cleavage was found to be 96%.
Consider “HIV-1 protease T96A (99 residues, HXB2) expressed from pMono”, for which the % Cleavage was found to be 14%.
